The test system of one data set is Jurkat T cells. The data set is described as follows: Bulk plate co-culture of TCR-expressing Jurkat T cells with B cells presenting cognate peptide, CD69 surface expression. The data set is classed as cell-based. The following applies: Ca^2+ in equimolar concentration to EDTA in the medium.
A further data set concerns Jurkat cells. As to the kind of experiment: Droplet co-culture of B and T cells, CD69 surface expression by flow cytometry. The data set is classed as cell-based. The following applies: 8 mM Ca^2+ in T cell suspension, 2 mM EDTA in B cell suspension. The protocol: One day prior to encapsulation, BOLETH cells were cultured in the presence of cognate or negative control peptides at a final concentration of 1 μM. Cells were collected the next day, centrifuged at 300 g for 5 min, then resuspended in B-cell medium at a final concentration of 1.4×10^7 cells/ml. These were further supplemented with same peptide and with or without EDTA. TCR-expressing Jurkat cells were centrifuged at 300 g and resuspended in B-cell medium at a concentration of 4×10^7 cells/ml. These were then further supplemented with respective concentrations of calcium. BOLETH, Jurkat, and detergent-containing fractions were connected to the microfluidic chip as described. Pressures were applied using an OB1 MK3+ and the droplet emulsion was collected into a 1.5 ml reaction tube containing oil.
Droplets were incubated at 37° C. in a 5% CO2 humidified incubator. Following overnight incubation, droplet emulsions were disrupted by adding two volumes of Pico-Break 1 (SPHERE FLUIDICS). Tubes were quickly inverted several times and centrifuged for 15 s at 300 rpm to facilitate separation of the cell-containing fraction. […] Tubes were centrifuged for 5 min at 300 g and cell pellets were subsequently resuspended in 100 μl of FACS buffer and were analyzed via flow cytometry. […]

For data set [1], the system named is TCR signaling. As to the kind of experiment: Co-culture of Jurkat reporter cells carrying synthetic promoters with peptide-loaded B cells (GFP / HA reporter). The data set is classed as cell-based. Here is the method: (§1) Sleeping beauty transposon reporter constructs were transfected together with transposases into T cells, 5 to 1 ratio, using the Neon transfection system following the manufacturer's protocol. The voltages used for Jurkat cells were 1350V/[…]/3 pulse, and for SKW-3 cells 1500V, […] and 1 pulse were used as settings. 48-72 hours after transfection, the cells were selected using […] Blasticidin for Jurkat and […] Blasticidin for SKW-3 cells.
(§2) Co-culture experiments were performed using round-bottom 96-well plates. P10-NBV Jurkat and SKW-3 reporter cells and B cells were seeded at a 1:1 ratio into each well. For peptide co-culture experiments, either cognate peptide or mismatched peptide is added to each well and incubated for 16 hours. For minigene-based co-culture experiments, minigene-transduced B cells harboring either the cognate of mismatch minigenes were used. Next day the cells are spun down and stained for Flow cytometry.

For data set [2], the system named is TCR signaling. The data set is described as follows: Co-culture of SKW-3 cells expressing sleeping beauty transposon reporters with peptide-loaded B cells (GFP / HA reporter). The data set is classed as cell-based. The following applies: 1 μM peptide. The protocol: as §1, §2
For data set [3], the target named is T1, CD19 on BOLETH cells (UniProt P15391 20-556, limits assumed).
T1 construct: whole, on cells; also called B cell-specific transmembrane protein CD19
T1 sequence (looked up): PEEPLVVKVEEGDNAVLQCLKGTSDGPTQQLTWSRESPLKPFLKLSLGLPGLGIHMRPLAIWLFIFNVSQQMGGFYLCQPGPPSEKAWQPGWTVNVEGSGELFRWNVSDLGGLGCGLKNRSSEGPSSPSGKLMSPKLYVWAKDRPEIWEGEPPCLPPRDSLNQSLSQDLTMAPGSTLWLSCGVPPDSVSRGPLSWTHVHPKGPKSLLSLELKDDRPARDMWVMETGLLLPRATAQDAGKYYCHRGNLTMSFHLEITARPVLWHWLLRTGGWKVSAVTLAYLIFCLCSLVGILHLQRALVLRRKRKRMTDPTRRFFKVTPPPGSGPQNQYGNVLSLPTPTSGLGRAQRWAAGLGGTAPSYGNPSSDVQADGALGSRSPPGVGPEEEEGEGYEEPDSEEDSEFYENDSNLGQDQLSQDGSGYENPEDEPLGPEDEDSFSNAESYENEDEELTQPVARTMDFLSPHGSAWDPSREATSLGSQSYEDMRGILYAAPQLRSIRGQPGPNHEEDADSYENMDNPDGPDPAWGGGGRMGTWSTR
As to the kind of experiment: flow cytometry; scFv secreted by Jurkat TT2 reporter cells in co-culture with BOLETH cells, 0.1 nM-10 µM cognate peptide. In general terms: A flow cytometer gives signals particle by particle.

In a further data set the test system is BOLETH cells. The data set is described as follows: Co-culture of Jurkat TT2 scFv reporter cells with BOLETH cells in presence of cognate peptide, flow cytometry. The data set is classed as cell-based. The conditions noted are these: 0.1 nM-10 μM cognate peptide; versus V5-tagged αCD20-scFv.
Data set [4] has as its target T1, CD19 on BOLETH cells. As to the kind of experiment: flow cytometry; BOLETH cells stained with supernatant of HEK cells transfected with tandem (T2A) constructs, anti-HA antibody.

For the molecule `[Ca+2]` [Ca^2+], the “T cell activation measured by surface expression of CD69” value in the data set with Jurkat T cells is given as “fully restores T cell activation”. The “T cell activation measured by CD69 surface expression in droplets” value in the data set with Jurkat cells was “rescues Ca^2+ dependent T cell activation”.

B1: NBV promoter: synthetic TCR responsive promoter, SEQ ID NO:50 (nucleic acid)
DNA: GAATTCAAGTACCGTGCAGGAGGAAAAACTGTTTCATACAGAAGGCGTGGGCTATGCAAATCGAAACGCTGGAAACACTGAGTAATCAGATCAAGTCATGTTTCCATTTGAATGCAAATGGATACAGAAGGCGTGGAGGAAAAACTGTTTCCTGTTCCAATAGACGCCCTTTTTGAATGCAAATGGCGAGCTCATGGGTTTCTCCACCAAGGTGACGAGTGGAAAATCTGACTCAGAATTATCCCTTGTTATGCAAATCGCCCAAAGAGGAAAATTTGTTTCATAGAACATACTGTCTCAAATAGACGCCTCCTCGAGCGTTTCCCGGGGTACC
As to B1, the “GFP and HA reporter gene expression in sleeping beauty constructs” value with TCR signaling [1] (sleeping beauty constructs) was “high GFP and HA reporter gene expression”. Moreover, the “GFP and HA median intensity compared to NFAT promoters” value in the data set on TCR signaling [1] (sleeping beauty transposon reporters in Jurkat cells, 1 μM peptide) is “best signal”. For the same molecule, in the data set with TCR signaling [1] (sleeping beauty transposon system, different concentrations of cognate peptide), the “intensity of HA and GFP signals compared to 4×NFAT” value is “higher intensity of both HA and GFP signals”. Moreover, in the data set on TCR signaling [2], the “HA and GFP fluorescence intensities with 2 copies of promoter instead of 1” value is recorded as “doubled”.

B2: αCD19-scFv (clone B43), four-times V5-tagged (scFv)
scFv: EVQLVQSGAEVKKPGSSVKVSCKASGYAFSSYWMNWVRQAPGQGLEWMGQIWPGDSDTNYAQKFQGRVTITADESTSTAYMELSSLRSEDTAVYYCARRETTTVGRYYYAMDYWGQGTTVTVSSGGGGSGGGGSGGGGSDIQLTQSPSFLSASVGDRVTITCKASQSVDYSGDSYLNWYQQKPGKAPKLLIYDASNLVSGVPSRFSGSGSGTEFTLTISSLQPEDFATYYCQQSTENPWTFGGGTKLEIKGKPIPNPLLGLDSTGAGSGGKPIPNPLLGLDSTGAGSGGKPIPNPLLGLDSTGGAGSGGKPIPNPLLGLDSTGSGAGGSSL
notes: also called αCD19-scFv V5-tagged
As to B2, in the data set with CD19 on BOLETH cells [3], the “fold reduction in MFI compared to V5-tagged αCD20-scFv (VLVH)” value is about 5 fold.

B3: αCD19-scFv V5-tagged: αCD19 scFv (clone B43) with four-times V5 tag (protein)
scFv: B2 scFv
As for B3, the “reduction in MFI” value in the data set with BOLETH cells is “about 5 fold”.

B4: αCD19-scFv (clone B43), VH-VL, tagged with six HA epitope tags at its C-terminus (scFv)
scFv: EVQLVQSGAEVKKPGSSVKVSCKASGYAFSSYWMNWVRQAPGQGLEWMGQIWPGDSDTNYAQKFQGRVTITADESTSTAYMELSSLRSEDTAVYYCARRETTTVGRYYYAMDYWGQGTTVTVSSGGGGSGGGGSGGGGSDIQLTQSPSFLSASVGDRVTITCKASQSVDYSGDSYLNWYQQKPGKAPKLLIYDASNLVSGVPSRFSGSGSGTEFTLTISSLQPEDFATYYCQQSTENPWTFGGGTKLEIKGAGSYPYDVPDYAGAGSYPYDVPDYAGGSYPYDVPDYAGGAGSYPYDVPDYAGAGSYPYDVPDYAGAGSYPYDVPDYAG
notes: also called αCD19-HA; B43-HA
For the molecule B4, the binding result in the data set with CD19 on BOLETH cells [4] was “binds”.
